From publication PMC9834408 (Nature Communications, 2023) come the findings set out here.

Test [1] has as its target T1, SHARP SPOC (3496–3664 aa) (human, UniProt Q96T58 3496-3664).
T1 construct: SPOC domain of human SHARP (SMRT/HDAC1 associated repressor protein, also known as SPEN), residues 3496-3664; also called SPOC domain of SHARP; SPEN SPOC; not shown: His6, N-terminal, cleaved
Kind of test: fluorescence polarisation; fluorescence anisotropy; 90 nM labelled peptide (Atto-488 on CTD peptides, FAM on NCoR and FMR1 peptides) titrated with increasing concentrations of SPOC domain; 20 °C; 25 mM Tris-Cl pH 7.4, 25 mM NaCl, 1 mM DTT; three independent dilution series. The note with it: both partners purified. (In fluorescence polarisation assays a small probe gives low polarisation when free and higher when bound to something large.)

A further test concerns the target T2, RBM15 SPOC R834A (human, UniProt Q96T37 775-960, R834A).
T2 construct: SPOC domain of human RBM15, residues 775-960, with R834A; not shown: His6, N-terminal, cleaved
T2 sequence (looked up): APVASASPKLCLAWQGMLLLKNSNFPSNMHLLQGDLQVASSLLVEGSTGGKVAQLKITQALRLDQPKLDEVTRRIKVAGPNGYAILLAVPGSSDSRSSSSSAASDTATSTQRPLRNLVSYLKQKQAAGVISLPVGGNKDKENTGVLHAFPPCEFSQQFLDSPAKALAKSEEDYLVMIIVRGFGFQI
The description is as above. The note with it: both partners purified.

Where no end group is shown, it is not given here. [ ]: non-standard residue; d: D form. FAM = FAM fluorescent label on the peptide N-terminus (the text does not expand the abbreviation); pS = N[C@@H](COP(=O)(O)O)C(=O)O

B1: NCoR peptide phosphorylated at S2436 (peptide)
chain: {FAM}-REPAPLLSAQYETL[pS]DSDD
modifications: also: phosphoserine at S2436
One may read the Kd as the equilibrium constant for the complex coming apart. In turn, B1 registered a dissociation constant Kd in test [1] of 1.75 ± 0.04 µM.

B2: 1×S5P CTD diheptapeptide (peptide)
peptide: {Atto‑488}-YSPT[pS]PSYSPTSPS
notes: also called 1×S5P CTD peptide; CTD pS5; source: lyophilized peptide, labeled with Atto-488 NHS ester, purified by reverse-phase HPLC
As for B2, in test [1], the affinity, expressed as Kd, was 23.8 ± 0.8 µM.

B3: WTAP peptide (first 19 N-terminal amino acids) phosphorylated at S14 (peptide, UniProt Q15007 1-19, looked up)
peptide: MTNEEPLPKKVRL[pS]ETDFK
notes: first 19 N-terminal amino acids of WTAP, with the LSETD motif; also called WTAP pS14
Take B3: binding with RBM15 SPOC R834A was characterised by a dissociation constant (Kd) of 50.4 ± 1.1 µM.

B4: unphosphorylated NCoR peptide (peptide)
chain: {FAM}-REPAPLLSAQYETLSDSDD
In test [1], B4 gave an equilibrium dissociation constant (Kd) of 13.6 ± 1.3 µM.
